The values that follow come from US20200277360A1 (UNIVERSITY OF MANCHESTER, published 2020).

The target of data set [1] is T1, C3b (human, UniProt P01024 23-667; P01024 749-1663).
T1 construct: also called purified C3b
Put plainly: Bio-Layer Interferometry.

Data set [2] addresses C3b.

T1 sequence (P01024 23-667 limits assumed, chain 1 of 2): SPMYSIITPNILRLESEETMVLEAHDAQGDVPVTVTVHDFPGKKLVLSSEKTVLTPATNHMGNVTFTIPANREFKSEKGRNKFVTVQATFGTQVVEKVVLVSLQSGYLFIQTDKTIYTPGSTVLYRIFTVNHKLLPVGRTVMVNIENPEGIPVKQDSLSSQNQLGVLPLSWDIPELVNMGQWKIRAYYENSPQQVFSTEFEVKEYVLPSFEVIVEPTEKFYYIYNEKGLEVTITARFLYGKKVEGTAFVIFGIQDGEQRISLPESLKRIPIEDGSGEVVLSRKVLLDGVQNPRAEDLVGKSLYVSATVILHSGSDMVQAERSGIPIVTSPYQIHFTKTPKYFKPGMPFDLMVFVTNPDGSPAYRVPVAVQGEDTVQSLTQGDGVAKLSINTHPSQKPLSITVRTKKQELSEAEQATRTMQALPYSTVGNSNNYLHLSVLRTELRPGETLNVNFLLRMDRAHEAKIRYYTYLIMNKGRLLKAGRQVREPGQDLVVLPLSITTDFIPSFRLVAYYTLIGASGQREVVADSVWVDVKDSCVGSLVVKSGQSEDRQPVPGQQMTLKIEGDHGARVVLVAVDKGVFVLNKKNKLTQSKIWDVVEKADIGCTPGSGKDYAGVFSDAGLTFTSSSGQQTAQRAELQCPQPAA
T1 sequence (P01024 749-1663 limits assumed, chain 2 of 2): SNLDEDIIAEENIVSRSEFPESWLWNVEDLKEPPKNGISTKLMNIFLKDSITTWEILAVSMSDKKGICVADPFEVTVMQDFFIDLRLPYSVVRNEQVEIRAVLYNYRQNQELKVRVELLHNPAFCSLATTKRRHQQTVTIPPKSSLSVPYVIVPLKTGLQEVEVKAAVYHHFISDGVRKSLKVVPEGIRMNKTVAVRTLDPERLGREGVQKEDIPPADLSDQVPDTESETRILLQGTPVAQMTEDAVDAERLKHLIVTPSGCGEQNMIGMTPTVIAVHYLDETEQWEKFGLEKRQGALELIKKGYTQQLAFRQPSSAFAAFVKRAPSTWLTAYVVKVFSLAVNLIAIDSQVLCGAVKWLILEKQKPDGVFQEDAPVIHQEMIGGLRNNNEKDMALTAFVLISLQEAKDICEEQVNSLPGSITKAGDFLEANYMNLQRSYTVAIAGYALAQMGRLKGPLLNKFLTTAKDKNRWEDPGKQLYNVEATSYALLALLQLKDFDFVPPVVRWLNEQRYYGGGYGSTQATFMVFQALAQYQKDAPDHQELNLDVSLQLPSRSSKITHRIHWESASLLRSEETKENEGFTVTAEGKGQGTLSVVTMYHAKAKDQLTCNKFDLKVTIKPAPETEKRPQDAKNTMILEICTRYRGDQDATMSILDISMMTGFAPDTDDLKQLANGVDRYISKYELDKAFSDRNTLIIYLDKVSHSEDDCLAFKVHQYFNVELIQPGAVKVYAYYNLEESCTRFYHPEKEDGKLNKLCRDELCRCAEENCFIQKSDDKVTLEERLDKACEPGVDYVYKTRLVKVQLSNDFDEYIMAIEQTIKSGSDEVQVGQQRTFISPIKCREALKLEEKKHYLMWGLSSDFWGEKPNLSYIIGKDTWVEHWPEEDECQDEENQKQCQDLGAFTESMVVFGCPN

B1: Complement Factor H (other)
chain: EDCNELPPRRNTEILTGSWSDQTYPEGTQAIYKCRPGYRSLGNVIMVCRKGEWVALNPLRKCQKRPCGHPGDTPFGTFTLTGGNVFEYGVKAVYTCNEGYQLLGEINYRECDTDGWTNDIPICEVVKCLPVTAPENGKIVSSAMEPDREYHFGQAVRFVCNSGYKIEGDEEMHCSDDGFWSKEKPKCVEISCKSPDVINGSPISQKIIYKENERFQYKCNMGYEYSERGDAVCTESGWRPLPSCEEKSCDNPYIPNGDYSPLRIKHRTGDEITYQCRNGFYPATRGNTAKCTSTGWIPAPRCTLKPCDYPDIKHGGLYHENMRRPYFPVAVGKYYSYYCDEHFETPSGSYWDHIHCTQDGWSPAVPCLRKCYFPYLENGYNQNYGRKFVQGKSIDVACHPGYALPKAQTTVTCMENGWSPTPRCIRVKTCSKSSIDIENGFISESQYTYALKEKAKYQCKLGYVTADGETSGSITCGKDGWSAQPTCIKSCDIPVFMNARTKNDFTWFKLNDTLDYECHDGYESNTGSTTGSIVCGYNGWSDLPICYERECELPKIDVHLVPDRKKDQYKVGEVLKFSCKPGFTIVGPNSVQCYHFGLSPDLPICKEQVQSCGPPPELLNGNVKEKTKEEYGHSEVVEYYCNPRFLMKGPNKIQCVDGEWTTLPVCIVEESTCGDIPELEHGWAQLSSPPYYYGDSVEFNCSESFTMIGHRSITCIHGVWTQLPQCVAIDKLKKCKSSNLIILEEHLKNKKEFDHNSNIRYRCRGKEGWIHTVCINGRWDPEVNCSMAQIQLCPPPPQIPNSHNMTTTLNYRDGEKVSVLCQENYLIQEGEEITCKDGRWQSIPLCVEKIPCSQPPQIEHGTINSSRSSQESYAHGTKLSYTCEGGFRISEENETTCYMGKWSSPPQCEGLPCKSPPEISHGVVAHMSDSYQYGEEVTYKCFEGFGIDGPAIAKCLGEKWSHPPSCIKTDCLSLPSFENAIPMGEKKDVYKAGEQVTYTCATYYKMDGASNVTCINSRWTGRPTCRDTSCVNPPTVQNAYIVSRQMSKYPSGERVRYQCRSPYEMFGDEEVMCLNGNWTEPPQCKDSTGKCGPPPPIDNGDITSFPLSVYAPASSVEYQCQNLYQLEGNKRITCRNGQWSEPPKCLHPCVISREIMENYNIALRWTAKQKLYSRTGESVEFVCKRGYRLSSRSHTLRTTCWDGKLEYPTCAKR
notes: Positive control in the BLI assay; also called FH
In turn, B1 had a Kd with C3b [1] of 583 nM.

B2: Complement Factor I (protein)
chain 1: KVTYTSQEDLVEKKCLAKKYTHLSCDKVFCQPWQRCIEGTCVCKLPYQCPKNGTAVCATNRRSFPTYCQQKSLECLHPGTKFLNNGTCTAEGKFSVSLKHGNTDSEGIVEVKLVDQDKTMFICKSSWSMREANVACLDLGFQQGADTQRRFKLSDLSINSTECLHVHCRGLETSLAECTFTKRRTMGYQDFADVVCYTQKADSPMDDFFQCVNGKYISQMKACDGINDCGDQSDELCCKACQGKGFHCKSGVCIPSQYQCNGEVDCITGEDEVGCAGFASVTQEETEILTADMDAERRRIKSLLPKLSCGVKNRMHI
chain 2: IVGGKRAQLGDLPWQVAIKDASGITCGGIYIGGCWILTAAHCLRASKTHRYQIWTTVVDWIHPDLKRIVIEYVDRIIFHENYNAGTYQNDIALIEMKKDGNKKDCELPRSIPACVPWSPYLFQPNDTCIVSGWGREKDNERVFSLQWGEVKLISNCSKFYGNRFYEKEMECAGTYDGSIDACKGDSGGPLVCMDANNVTYVWGVVSWGENCGKPEFPGVYTKVANYFDWISYHVGRPFISQYNV
With B2, the “C3b alpha-chain breakdown (Instant Blue stained gel), with FHL-1 as co-factor” value in the data set with C3b [2] is “It was possible to observe the breakdown of the α-chain of C3b in the presence of FHL-1 and FI”.

B3: glycosylated chimeric FH-FI polypeptide (other)
chain: GSSGEDCNELPPRRNTEILTGSWSDQTYPEGTQAIYKCRPGYRSLGNIIMVCRKGEWVALNPLRKCQKRPCGHPGDTPFGTFTLTGGNVFEYGVKAVYTCNEGYQLLGEINYRECDTDGWTNDIPICEVVKCLPVTAPENGKIVSSAMEPDREYHFGQAVRFVCNSGYKIEGDEEMHCSDDGFWSKEKPKCVEISCKSPDVINGSPISQKIIYKENERFQYKCNMGYEYSERGDAVCTESGWRPLPSCEEGGGGSRGGGGSGGGGSIVGGKRAQLGDLPWQVAIKDASGITCGGIYIGGCWILTAAHCLRASKTHRYQIWTTVVDWIHPDLKRIVIEYVDRIIFHENYNAGTYQNDIALIEMKKDGNKKDCELPRSIPAAVPWSPYLFQPNDTCIVSGWGREKDNERVFSLQWGEVKLISNCSKFYGNRFYEKEMECAGTYDGSIDACKGDSGGPLVCMDANNVTYVWGVVSWGENCGKPEFPGVYTKVANYFDWISYHVGRPFISQYNV
modifications: N-glycans on the Complement Factor I proteolytic domain (glycosylated form)
notes: It consists of the Factor H co-factor region (CCPs 1-4), a G4S-R-(G4S)2 linker and the Factor I proteolytic domain; also called Chimera
In turn, B3 returned a Kd with C3b [1] of 5.21 nM.

B4: deglycosylated chimeric FH-FI polypeptide (other)
chain: GSSGEDCNELPPRRNTEILTGSWSDQTYPEGTQAIYKCRPGYRSLGNIIMVCRKGEWVALNPLRKCQKRPCGHPGDTPFGTFTLTGGNVFEYGVKAVYTCNEGYQLLGEINYRECDTDGWTNDIPICEVVKCLPVTAPENGKIVSSAMEPDREYHFGQAVRFVCNSGYKIEGDEEMHCSDDGFWSKEKPKCVEISCKSPDVINGSPISQKIIYKENERFQYKCNMGYEYSERGDAVCTESGWRPLPSCEEGGGGSRGGGGSGGGGSIVGGKRAQLGDLPWQVAIKDASGITCGGIYIGGCWILTAAHCLRASKTHRYQIWTTVVDWIHPDLKRIVIEYVDRIIFHENYNAGTYQNDIALIEMKKDGNKKDCELPRSIPAAVPWSPYLFQPNDTCIVSGWGREKDNERVFSLQWGEVKLISNCSKFYGNRFYEKEMECAGTYDGSIDACKGDSGGPLVCMDANNVTYVWGVVSWGENCGKPEFPGVYTKVANYFDWISYHVGRPFISQYNV
modifications: N-glycans removed with PNGase F under non-denaturing conditions
notes: It is not the N464Q/N494Q/N536Q mutant; also called dFH-FI; dChimera
Molecule B4 had a Kd in the data set with C3b [1] of 47.6 nM.

B5: Complement Factor H isoform FHL-1 (other)
chain: EDCNELPPRRNTEILTGSWSDQTYPEGTQAIYKCRPGYRSLGNVIMVCRKGEWVALNPLRKCQKRPCGHPGDTPFGTFTLTGGNVFEYGVKAVYTCNEGYQLLGEINYRECDTDGWTNDIPICEVVKCLPVTAPENGKIVSSAMEPDREYHFGQAVRFVCNSGYKIEGDEEMHCSDDGFWSKEKPKCVEISCKSPDVINGSPISQKIIYKENERFQYKCNMGYEYSERGDAVCTESGWRPLPSCEEKSCDNPYIPNGDYSPLRIKHRTGDEITYQCRNGFYPATRGNTAKCTSTGWIPAPRCTLKPCDYPDIKHGGLYHENMRRPYFPVAVGKYYSYYCDEHFETPSGSYWDHIHCTQDGWSPAVPCLRKCYFPYLENGYNQNYGRKFVQGKSIDVACHPGYALPKAQTTVTCMENGWSPTPRCIRVSFTL
notes: Positive control in the BLI assay; also called factor H-like protein 1
B5: the Kd with C3b [1] turned out to be 1170 nM.
